Patent US20220074941A1, “HSP90 COMBINATION THERAPY” (Sloan-Kettering Institute for Cancer Research, priority 2011, published 2022)

B1: SLC3A2 (protein, UniProt P08195 1-630, looked up)
Amino acid transporter heavy …: MELQPPEASIAVVSIPRQLPGSHSEAGVQGLSAGDDSELGSHCVAQTGLELLASGDPLPSASQNAEMIETGSDCVTQAGLQLLASSDPPALASKNAEVTGTMSQDTEVDMKEVELNELEPEKQPMNAASGAAMSLAGAEKNGLVKIKVAEDEAEAAAAAKFTGLSKEELLKVAGSPGWVRTRWALLLLFWLGWLGMLAGAVVIIVRAPRCRELPAQKWWHTGALYRIGDLQAFQGHGAGNLAGLKGRLDYLSSLKVKGLVLGPIHKNQKDDVAQTDLLQIDPNFGSKEDFDSLLQSAKKKSIRVILDLTPNYRGENSWFSTQVDTVATKVKDALEFWLQAGVDGFQVRDIENLKDASSFLAEWQNITKGFSEDRLLIAGTNSSDLQQILSLLESNKDLLLTSSYLSDSGSTGEHTKSLVTQYLNATGNRWCSWSLSQARLLTSFLPAQLLRLYQLMLFTLPGTPVFSYGDEIGLDAAALPGQPMEAPVMLWDESSFPDIPGAVSANMTVKGQSEDPGSLLSLFRRLSDQRSKERSLLHGDFHAFSAGPGLFSYIRHWDQNERFLVVLNFGDVGLSAGLQASDLPASASLPAKADLLLSTQPGREEGSPLELERLKLEPHEGLLLRFPYAA
B2: FTSJD2 (protein, UniProt Q8N1G2 1-835, looked up)
Cap-specific mRNA …: MKRRTDPECTAPIKKQKKRVAELALSLSSTSDDEPPSSVSHGAKASTTSLSGSDSETEGKQHSSDSFDDAFKADSLVEGTSSRYSMYNSVSQKLMAKMGFREGEGLGKYSQGRKDIVEASSQKGRRGLGLTLRGFDQELNVDWRDEPEPSACEQVSWFPECTTEIPDTQEMSDWMVVGKRKMIIEDETEFCGEELLHSVLQCKSVFDVLDGEEMRRARTRANPYEMIRGVFFLNRAAMKMANMDFVFDRMFTNPRDSYGKPLVKDREAELLYFADVCAGPGGFSEYVLWRKKWHAKGFGMTLKGPNDFKLEDFYSASSELFEPYYGEGGIDGDGDITRPENISAFRNFVLDNTDRKGVHFLMADGGFSVEGQENLQEILSKQLLLCQFLMALSIVRTGGHFICKTFDLFTPFSVGLVYLLYCCFERVCLFKPITSRPANSERYVVCKGLKVGIDDVRDYLFAVNIKLNQLRNTDSDVNLVVPLEVIKGDHEFTDYMIRSNESHCSLQIKALAKIHAFVQDTTLSEPRQAEIRKECLRLWGIPDQARVAPSSSDPKSKFFELIQGTEIDIFSYKPTLLTSKTLEKIRPVFDYRCMVSGSEQKFLIGLGKSQIYTWDGRQSDRWIKLDLKTELPRDTLLSVEIVHELKGEGKAQRKISAIHILDVLVLNGTDVREQHFNQRIQLAEKFVKAVSKPSRPDMNPIRVKEVYRLEEMEKIFVRLEMKIIKGSSGTPKLSYTGRDDRHFVPMGLYIVRTVNEPWTMGFSKSFKKKFFYNKKTKDSTFDLPADSIAPFHICYYGRLFWEWGDGIRVHDSQKPQDQDKLSKEDVLSFIQMHRA
B3: NFKB1 (protein)
chain: MAEDDPYLGRPEQMFHLDPSLTHTIFNPEVFQPQMALPTDGPYLQILEQPKQRGFRFRYVCEGPSHGGLPGASSEKNKKSYPQVKICNYVGPAKVIVQLVTNGKNIHLHAHSLVGKHCEDGICTVTAGPKDMVVGFANLGILHVTKKKVFETLEARMTEACIRGYNPGLLVHPDLAYLQAEGGGDRQLGDREKELIRQAALQQTKEMDLSVVRLMFTAFLPDSTGSFTRRLEPVVSDAIYDSKAPNASNLKIVRMDRTAGCVTGGEEIYLLCDKVQKDDIQIRFYEEEENGGVWEGFGDFSPTDVHRQFAIVFKTPKYKDINITKPASVFVQLRRKSDLETSEPKPFLYYPEIKDKEEVQRKRQKLMPNFSDSFGGGSGAGAGGGGMFGSGGGGGGTGSTGPGYSFPHYGFPTYGGITFHPGTTKSNAGMKHGTMDTESKKDPEGCDKSDDKNTVNLFGKVIETTEQDQEPSEATVGNGEVTLTYATGTKEESAGVQDNLFLEKAMQLAKRHANALFDYAVTGDVKMLLAVQRHLTAVQDENGDSVLHLAIIHLHSQLVRDLLEVTSGLISDDIINMRNDLYQTPLHLAVITKQEDVVEDLLRAGADLSLLDRLGNSVLHLAAKEGHDKVLSILLKHKKAALLLDHPNGDGLNAIHLAMMSNSLPCLLLLVAAGADVNAQEQKSGRTALHLAVEHDNISLAGCLLLEGDAHVDSTTYDGTTPLHIAAGRGSTRLAALLKAAGADPLVENFEPLYDLDDSWENAGEDEGVVPGTTPLDMATSWQVFDILNGKPYEPEFTSDDLLAQGDMKQLAEDVKLQLYKLLEIPDPDKNWATLAQKLGLGILNNAFRLSPAPSKTLMDNYEVSGGTVRELVEALRQMGYTEAIEVIQAASSPVKTTSQAHSLPLSPASTRQQIDELRDSDSVCDSGVETSFRKLSFTESLTSGASLLTLNKMPHDYGQEGPLEGKI
B4: DIABLO (protein, UniProt Q9NR28 22-239, looked up)
Diablo IAP-binding …: LCVPVVANFKKRCFSELIRPWHKTVTIGFGVTLCAVPIAQKSEPHSLSSEALMRRAVSLVTDSTSTFLSQTTYALIEAITEYTKAVYTLTSLYRQYTSLLGKMNSEEEDEVWQVIIGARAEMTSKHQEYLKLETTWMTAVGLSEMAAEAAYQTGADQASITARNHIQLVKLQVEEVHQLSRKAETKLAEAQIEELRQKTQEEGEERAESEQEAYLRED
B5: SARM1 (protein, UniProt Q6SZW1 28-724, looked up)
NAD(+) hydrolase SARM1: LAVPGPDGGGGTGPWWAAGGRGPREVSPGAGTEVQDALERALPELQQALSALKQAGGARAVGAGLAEVFQLVEEAWLLPAVGREVAQGLCDAIRLDGGLDLLLRLLQAPELETRVQAARLLEQILVAENRDRVARIGLGVILNLAKEREPVELARSVAGILEHMFKHSEETCQRLVAAGGLDAVLYWCRRTDPALLRHCALALGNCALHGGQAVQRRMVEKRAAEWLFPLAFSKEDELLRLHACLAVAVLATNKEVEREVERSGTLALVEPLVASLDPGRFARCLVDASDTSQGRGPDDLQRLVPLLDSNRLEAQCIGAFYLCAEAAIKSLQGKTKVFSDIGAIQSLKRLVSYSTNGTKSALAKRALRLLGEEVPRPILPSVPSWKEAEVQTWLQQIGFSKYCESFREQQVDGDLLLRLTEEELQTDLGMKSGITRKRFFRELTELKTFANYSTCDRSNLADWLGSLDPRFRQYTYGLVSCGLDRSLLHRVSEQQLLEDCGIHLGVHRARILTAAREMLHSPLPCTGGKPSGDTPDVFISYRRNSGSQLASLLKVHLQLHGFSVFIDVEKLEAGKFEDKLIQSVMGARNFVLVLSPGALDKCMQDHDCKDWVHKEIVTALSCGKNIVPIIDGFEWPEPQVLPEDMQAVLTFNGIKWSHEYQEATIEKIIRFLQGRSSRDSSAGSDTSLEGAAPMGPT
B6: ZC3HAV1 (protein, UniProt Q7Z2W4 2-902, looked up)
Zinc finger CCCH-type …: ADPEVCCFITKILCAHGGRMALDALLQEIALSEPQLCEVLQVAGPDRFVVLETGGEAGITRSVVATTRARVCRRKYCQRPCDNLHLCKLNLLGRCNYSQSERNLCKYSHEVLSEENFKVLKNHELSGLNKEELAVLLLQSDPFFMPEICKSYKGEGRQQICNQQPPCSRLHICDHFTRGNCRFPNCLRSHNLMDRKVLAIMREHGLNPDVVQNIQDICNSKHMQKNPPGPRAPSSHRRNMAYRARSKSRDRFFQGSQEFLASASASAERSCTPSPDQISHRASLEDAPVDDLTRKFTYLGSQDRARPPSGSSKATDLGGTSQAGTSQRFLENGSQEDLLHGNPGSTYLASNSTSAPNWKSLTSWTNDQGARRKTVFSPTLPAARSSLGSLQTPEAVTTRKGTGLLSSDYRIINGKSGTQDIQPGPLFNNNADGVATDITSTRSLNYKSTSSGHREISSPRIQDAGPASRDVQATGRIADDADPRVALVNDSLSDVTSTTSSRVDDHDSEEICLDHLCKGCPLNGSCSKVHFHLPYRWQMLIGKTWTDFEHMETIEKGYCNPGIHLCSVGSYTINFRVMSCDSFPIRRLSTPSSVTKPANSVFTTKWIWYWKNESGTWIQYGEEKDKRKNSNVDSSYLESLYQSCPRGVVPFQAGSRNYELSFQGMIQTNIASKTQKDVIRRPTFVPQWYVQQMKRGPDHQPAKTSSVSLTATFRPQEDFCFLSSKKYKLSEIHHLHPEYVRVSEHFKASMKNFKIEKIKKIENSELLDKFTWKKSQMKEEGKLLFYATSRAYVESICSNNFDSFLHETHENKYGKGIYFAKDAIYSHKNCPYDAKNVVMFVAQVLVGKFTEGNITYTSPPPQFDSCVDTRSNPSVFVIFQKDQVYPQYVIEYTEDKACVIS
B7: PSPC1 (protein, UniProt Q8WXF1 1-523, looked up)
Paraspeckle component 1: MMLRGNLKQVRIEKNPARLRALESAVGESEPAAAAAMALALAGEPAPPAPAPPEDHPDEEMGFTIDIKSFLKPGEKTYTQRCRLFVGNLPTDITEEDFKRLFERYGEPSEVFINRDRGFGFIRLESRTLAEIAKAELDGTILKSRPLRIRFATHGAALTVKNLSPVVSNELLEQAFSQFGPVEKAVVVVDDRGRATGKGFVEFAAKPPARKALERCGDGAFLLTTTPRPVIVEPMEQFDDEDGLPEKLMQKTQQYHKEREQPPRFAQPGTFEFEYASRWKALDEMEKQQREQVDRNIREAKEKLEAEMEAARHEHQLMLMRQDLMRRQEELRRLEELRNQELQKRKQIQLRHEEEHRRREEEMIRHREQEELRRQQEGFKPNYMENREQEMRMGDMGPRGAINMGDAFSPAPAGNQGPPPMMGMNMNNRATIPGPPMGPGPAMGPEGAANMGTPMMPDNGAVHNDRFPQGPPSQMGSPMGSRTGSETPQAPMSGVGPVSGGPGGFGRGSQGGNFEGPNKRRRY

Experiments:
[1] = test system: Hsp90 complexes in Mia-PaCa-2 cell extract; test: Nano-LC-MS/MS of PU-beads pull-downs; format: binding, human; details: protein identified in PU-beads pull-down of Mia-PaCa-2 cell extract; QSTAR-Elite QTof MS
Outline: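 Lysates pre-cleared overnight at 4 °C with control beads underwent PU-bead pull-down; bound proteins were SDS-eluted, gel-separated, digested and analyzed by nano-LC-MS/MS on a QTof. Identifications used significance p<0.05, 0.4 Da tolerances and one missed cleavage; unique peptide (spectral) counts and sequence coverage were reported.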

[2] = test system: Hsp90 complexes in K562 cell extract; test: Nano-LC-MS/MS of PU-beads pull-downs; format: binding; details: protein identified in PU-beads pull-down of K562 cell extract, QSTAR-Elite QTof MS
Outline: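 Lysates pre-cleared overnight at 4 °C with control beads, then pulled down with PU-beads or control beads; eluted proteins (2% SDS boil) gel-separated and analysed by nano LC-MS/MS on a QTof. Mascot identification (p<0.05), spectral counts and sequence coverage evaluated in Scaffold.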

Molecule	Number of Assigned Spectra, Mia-Paca 2 [1]	Number of Assigned Spectra, K562 Prep 1 [2]	Number of Assigned Spectra, K562 Prep 2 [2]
B1	0	3	0
B2	0	3	1
B3	2	1	0
B4	2	1	0
B5	5	0	0
B6	0	7	0
B7	0	5	2
